Here are results for one molecule from article PMC11045787, “Disordered clock protein interactions and charge blocks turn an hourglass into a persistent circadian oscillator” (Nature Communications, 2024).

Where no end group is shown, it is not given here.

This test deals with T1, FRQ-interacting RNA Helicase (FRH), a.a. 100-1106, with 6x His-tag (N. crassa, UniProt Q1K502 100-1106).
T1 construct: The preparation was only about 30% FRH; the other proteins were left in on purpose; also called FRHΔ100; E. coli expressed FRH; source: E. coli BL21 (DE3), Ni-NTA eluate, de-salted and buffer-exchanged to PBS (~30% FRH by Coomassie gel); not shown: His6, N-terminal, kept
T1 sequence (looked up): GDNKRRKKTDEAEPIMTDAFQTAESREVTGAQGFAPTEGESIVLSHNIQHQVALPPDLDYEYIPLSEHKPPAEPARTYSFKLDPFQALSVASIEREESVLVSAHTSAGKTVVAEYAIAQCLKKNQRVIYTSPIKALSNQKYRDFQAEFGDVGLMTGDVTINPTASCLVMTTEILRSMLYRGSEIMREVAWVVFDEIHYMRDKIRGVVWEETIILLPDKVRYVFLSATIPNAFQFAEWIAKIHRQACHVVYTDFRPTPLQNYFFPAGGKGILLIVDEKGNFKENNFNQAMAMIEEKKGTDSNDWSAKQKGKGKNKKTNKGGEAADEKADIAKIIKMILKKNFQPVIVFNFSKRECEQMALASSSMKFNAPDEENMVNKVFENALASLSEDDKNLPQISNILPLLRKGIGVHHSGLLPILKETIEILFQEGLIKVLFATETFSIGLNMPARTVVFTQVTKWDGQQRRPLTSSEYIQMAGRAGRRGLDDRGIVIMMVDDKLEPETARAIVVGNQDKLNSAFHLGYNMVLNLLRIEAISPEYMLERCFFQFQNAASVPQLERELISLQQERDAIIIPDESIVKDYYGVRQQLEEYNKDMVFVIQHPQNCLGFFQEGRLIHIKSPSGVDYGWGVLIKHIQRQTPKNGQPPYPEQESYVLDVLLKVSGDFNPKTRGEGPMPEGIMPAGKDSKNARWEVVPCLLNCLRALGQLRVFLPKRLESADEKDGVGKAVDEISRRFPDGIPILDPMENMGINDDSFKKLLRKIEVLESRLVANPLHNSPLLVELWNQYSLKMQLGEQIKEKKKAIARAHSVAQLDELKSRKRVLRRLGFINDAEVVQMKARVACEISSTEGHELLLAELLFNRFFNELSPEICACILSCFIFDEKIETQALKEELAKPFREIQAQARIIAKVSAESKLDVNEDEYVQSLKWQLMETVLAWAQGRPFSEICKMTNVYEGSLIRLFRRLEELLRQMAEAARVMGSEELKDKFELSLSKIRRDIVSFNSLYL
Kind of test: peptide or protein array; LOCATE Library II: rationally designed FRQ peptides (parents, scrambles, truncations, substitutions) spotted on slides; ~100 nM FRH in solution, room temperature, PBS pH 7.0; read with anti-His and chemiluminescence; FRH preparation ~30% pure. The note with it: both partners purified.

B1: FRQ peptide MTDKEKKKLVVRRLE (near the FCD-1 region) (peptide)
peptide: Ac-MTDKEKKKLVVRRLE
notes: Made from C- to N-terminus on cellulose; printed as a peptide-cellulose stock; source: synthetic peptide (Fmoc, on cellulose disks, spotted on nitrocellulose-coated slides)
As for B1, the binding result is “binds”.
